From doi:10.1101/2020.08.11.244863 come the findings set out here.

As usually defined, the stoichiometry N is a count of units in the complex or per binding partner.

Assay [1] concerns the target SARS-CoV-2 Nsp15 H235A (SARS-CoV-2). Description: SEC. Background: Size exclusion chromatography separates by hydrodynamic size, large species first.
For assay [2] the target is unchanged. Briefly: cryo-EM structure.
Assay [3] addresses SARS-CoV-2 Nsp15 H250A (SARS-CoV-2). Description: SEC.

As to SARS-CoV-2 Nsp15 H235A (enzyme), the stoichiometry N in assay [1] and in assay [2] was 6 in each case. In turn, SARS-CoV-2 Nsp15 H250A (enzyme) came in with a stoichiometry N in assay [3] of 6.
